Experimental findings from patent US20170267986A1, “GENERATION OF MANNOSE-6-PHOSPHATE CONTAINING RECOMBINANT ALPHA-N-ACETYL GLUCOSAMINIDASE” (SHIRE HUMAN GENETIC THERAPIES, INC., priority 2014, published 2017) are described below.

Data set [1] has as its target T1, Recombinant human Naglu (rhNaglu).
T1 chain: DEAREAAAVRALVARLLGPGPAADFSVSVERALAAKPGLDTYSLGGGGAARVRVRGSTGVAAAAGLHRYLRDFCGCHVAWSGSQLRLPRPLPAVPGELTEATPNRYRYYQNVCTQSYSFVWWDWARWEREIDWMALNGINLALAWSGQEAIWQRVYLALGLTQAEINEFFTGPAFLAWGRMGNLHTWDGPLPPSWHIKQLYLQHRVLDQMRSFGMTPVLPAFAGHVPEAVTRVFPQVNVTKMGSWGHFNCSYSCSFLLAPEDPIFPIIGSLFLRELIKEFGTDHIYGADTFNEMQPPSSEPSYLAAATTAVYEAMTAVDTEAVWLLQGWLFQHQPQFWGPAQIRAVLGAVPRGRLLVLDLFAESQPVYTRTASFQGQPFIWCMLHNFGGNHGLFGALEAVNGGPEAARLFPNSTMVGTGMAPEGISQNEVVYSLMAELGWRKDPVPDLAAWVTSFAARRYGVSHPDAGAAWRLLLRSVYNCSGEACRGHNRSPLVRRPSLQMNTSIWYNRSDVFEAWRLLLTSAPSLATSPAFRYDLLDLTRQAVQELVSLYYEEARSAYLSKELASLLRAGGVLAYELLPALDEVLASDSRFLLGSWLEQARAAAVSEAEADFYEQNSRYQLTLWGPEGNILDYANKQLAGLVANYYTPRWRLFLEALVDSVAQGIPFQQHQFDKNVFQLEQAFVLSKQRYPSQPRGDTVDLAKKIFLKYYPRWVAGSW

In data set [2] the target is T2, Naglu-Kif, a high-mannose-containing recombinant human Naglu (before sGNPT modification).
T2 chain: T1 chain

For a further data set, the target named is T3, CI-M6PR (Homo sapiens, UniProt P11717).
T3 construct: the secreted sCI-M6PR was purified from the tissue culture medium; made in house
Briefly: Plate based sCI-M6PR binding assay (ELISA). The note with it: treated with sGNPT under the same conditions as Naglu-Kif. On the procedure:
(1) Generation of sCI-M6PR (soluble CI-M6PR)—Full length M6PR was expressed in genetically modified tissue culture cells, and the secreted sCI-M6PR was purified from the tissue culture medium using an aminophenyl-M6P conjugated resin (Beljaars et al., 1999). N-terminal sequencing and LC/MS/MS analysis of the obtained protein confirmed the amino acid sequence of the sCI-M6PR, and MALDI analysis confirmed that its molecular mass was 279,492 Da.
100 μl of sCI-M6PR(2.5 μg/ml) in DPBS were coated on MaxiSorp® Nunc-Immuno flat-bottom 96-well plates (Thermo Fisher Scientific, Inc., Sunnyvale, Calif.). After incubation for 1 hour at 37° C., the plates was washed with ELISA wash buffer (0.1% Tween-20 in DPBS). sCI-M6PR coated wells were blocked with 300 μl ELISA blocking buffer (DPBS, 2% BSA, 0.05% Tween 20) at 37° C. for 1 hour. Appropriate dilutions of sGNPT-modified Naglu-Kif (and rhNaglu as control) were made in blocking buffer and added to the wells. After 1 hour incubation at 37° C., the plates were washed with ELISA wash buffer, and 100 μl of HRP-conjugated rabbit anti-Naglu polyclonal antibody #2957 diluted in blocking buffer were added. After 1 hour incubation at 37° C., the plates was washed again with ELISA wash buffer. The ELISA was developed using TMB peroxidase substrate solution (KPL, Inc., Gaithersburg, Mass.) by following the manufacturer's protocol.
sGNPT transfers the phospho-GlcNAc group from UDP-GlcNAc to mannose sugar, and the resulting mannose-6-phosphate-GlcNAc is called the Capped-M6P. During the normal intracellular glycosylation process, the decapping enzyme (N-acetylglucosamine 1-phosphodiester α-N-acetyglucosaminidase) removes the GlcNAc from the Capped-M6P, to generate M6P. But without decapping, the Capped-M6P can also bind to CI-M6PR. Capped-M6P binds to domain 5 of CI-M6PR rather than to domain 3 or 9, as M6P does (Bohnsack et al. 2009). The amount of Capped-M6P on Naglu-Kif can be indirectly evaluated using a CI-M6PR plate binding assay. In this binding assay the affinity with which Naglu-Kif bound to CI-M6PR increased in proportion to the amount of sGNPT used (35 μg, 70 μg and 140 (corresponding to about 4.2 μM) (green, red and empty circle in FIG. 8, respectively)) to modify Naglu-Kif and thus the extent of Capped-M6P found on Naglu-Kif (FIG. 8). […] These binding reactions were repeated in two different buffer systems, i.e., in a sodium acetate buffer (40 mM NaAc pH 6.5, 10 mM MnCl2, 10 mM MgCl2) and in a Tris buffer (50 mM Tris pH 7.4, 10 mM MnCl2, 10 mM MgCl2), which gave similar results. Contrary to Naglu-Kif, rhNaglu was not phosphorylated by sGNPT under the same conditions due to the lack of high-mannose glycans.
Background: An ELISA detects its analyte on a solid surface through an enzyme-linked reagent.

For a further data set, the target named is T4, rhNaglu (Homo sapiens, UniProt P54802).
T4 construct: The N-terminal 23 amino acids are cleaved as the precursor protein enters the endoplasmic reticulum, resulting in a mature form; made in house; host or cells: human fibrosarcoma HT1080 cell clone over-expressing rhNaglu
T4 sequence (P54802 24-743): T1 chain
The data set can be described thus: Naglu substrate analysis: hydrolysis of UDP-sugars by rhNaglu, PAD-HPLC. In kind it is biochemical. Particulars: 0.8 mM UDP-GlcNAc, 37° C., 1 hour. On the procedure:
Recombinant human Naglu was co-incubated with uridine diphosphate N-acetylglucosamine (UDP-GlcNAc) or uridine diphosphate N-acetyl galactosamine (UDP-GalNAc). UDP-GlcNAc, GlcNAc (N-acetylglucosamine) and UDP-GalNAc were detected using PAD-HPLC (Pulsed Amperometric Detection-High Pressure Liquid Chromatography) that was modified after Chavaroche et al. 2011.
Recombinant human Naglu was dialyzed into Tris buffer (40 mM Tris pH 7.15, 100 mM NaCl, 4 mM MgCl2, and 4 mM MnCl2) and concentrated with VivaSpin® sample concentrators having a 30 kDa cut-off (Viva Products, Inc., Littleton, Mass.). […]
Samples were then subjected to centrifugation at 10,000 rpm, and the resulting supernatants were loaded on PA10 columns and detected by PAD-HPLC (Pulsed Amperometric Detection-High Pressure Liquid Chromatography) (Dionex ICS-3000 Ion Chromatography System (Thermo Fisher Scientific, Inc., Sunnyvale, Calif.)). […] The peak areas for the eluted UDP-GlcNAc were measured, and the reductions of the area under the curve (AUC) in response to increased concentrations of rhNaglu were determined (FIG. 1A). A new peak at 10.7 minutes was detected on the chromatograms of samples treated with concentrations of rhNaglu of 23.4 μg/ml and above. […] The peak areas for the eluted GlcNAc were measured, and the increases of the AUC in response to increased concentrations of rhNaglu were determined (FIG. 1B). […]

B1: Soluble human N-acetylglucosamine-1-phosphotransferase (sGNPT), HPC4 tagged (protein)
chain: DEDQVDPRLIDGKWSRDQYHVLFDSYRDNIAGKSFQNRLCLPMPIDVVYTWVNGTDLELLKELQQVREQMEEEQKAMREILGKNTTEPTKKSEKQLECLLTHCIKVPMLVLDPALPANITLKDLPSLYPSFHSASDIFNVAKPKNPSTNVSVVVFDSTKDVEDAHSGLLKGNSRQTVWRGYLTTDKEVPGLVLMQDLAFLSGFPPTFKETNQLKTKLPENLSSKVKLLQLYSEASVALLKLNNPKDFQELNKQTKKNMTIDGKELTISPAYLLWDLSAISQSKQDEDISASRFEDNEELRYSLRSIERHAPWVRNIFIVTNGQIPSWLNLDNPRVTIVTHQDVFRNLSHLPTFSSPAIESHIHRIEGLSQKFIYLNDDVMFGKDVWPDDFYSHSKGQKVYLTWPVPNCAEGCPGSWIKDGYCDKACNNSACDWDGGDCSGNSGGSRYIAGGGGTGSIGVGQPWQFGGGINSVSYCNQGCANSWLADKFCDQACNVLSCGFDAGDCGQDHFHELYKVILLPNQTHYIIPKGECLPYFSFAEVAKRGVEGAYSDNPIIRHASIANKWKTIHLIMHSGMNATTIHFNLTFQNTNDEEFKMQITVEVDTREGPKLNSTAQKGYENLVSPITLLPEAEILFEDIPKEKRFPKFKRHDVNSTRRAQEEVKIPLVNISLLPKDAQLSLNTLDLQLEHGDITLKGYNLSKSALLRSFLMNSQHAKIKNQAIITDETNDSLVAPQEKQVHKSILPNSLGVSERLQRLTFPAVSVKVNGHDQGQNPPLDLETTARFRVETHTQKTIGGNVTKEKPPSLIVPLESQMTKEKKITGKEKENSRMEENAENHIGVTEVLLGRKLQHYTDSYLGFLPWEKKKYFQDLLDEEESLKTQLAYFTDSKNRARYKRDTFADSLRYVNKILNSKFGFTSRKVPAHMPHMIDRIVMQELQDMFPEEFDKTSFHKVRHSEDMQFAFSYFYYLMSAVQPLNISQVFDEVDTDQSGVLSDREIRTLATRIHELPLSLQDLTGLEHMLINCSKMLPADITQLNNIPPTQESYYDPNLPPVTKSLVTNCKPVTDKIHKAYKDKNKYRFEIMGEEEIAFKMIRTNVSHVVGQLDDIRKNPRKFVCLNDNIDHNHKDAQTVKAVLRDFYESMFPIPSQFELPREYRNRFLHMHELQEWRAYRDKL
As to B1, the “in vitro phosphorylation by sGNPT” value in data set [1] is “rhNaglu was not phosphorylated by sGNPT under the same conditions due to the lack of high-mannose glycans”. For the same molecule, in data set [2], the pmol M6P/pmol Naglu Kif (M6P monosaccharide quantitation by PAD-HPLC after in vitro phosphorylation; +70 ug GNPT, 50 mM Tris pH 7.4, 10 mM MnCl2, 10 mM MgCl2) (pmol M6P/pmol Naglu Kif) came out at 1.45; the pmol M6P/pmol Naglu Kif (M6P monosaccharide quantitation by PAD-HPLC after in vitro phosphorylation; +70 ug GNPT, 50 mM sodium acetate pH 6.5, 20 mM MnCl2) (pmol M6P/pmol Naglu Kif) was 0.12; the pmol M6P/pmol Naglu Kif (M6P monosaccharide quantitation by PAD-HPLC after in vitro phosphorylation; +140 ug GNPT, 50 mM sodium acetate pH 6.5, 20 mM MnCl2) (pmol M6P/pmol Naglu Kif) turned out to be 0.64.

B2: rhNaglu: recombinant human alpha-N-acetyl-glucosaminidase purified from human fibrosarcoma HT1080 cells engineered to over-express it (protein)
chain: T1 chain
For the molecule B2, in the data set with CI-M6PR, the “binding to CI-M6PR” value was “did not bind”. Also, the “minimum rhNaglu concentration required for detection of hydrolysis of UDP-GlcNAc” value with rhNaglu was 23.4 µg/mL.
